Source: US20030175364A1, “Process for binding carotenoids to proteins and the products thereof” (priority 2002, published 2003)
Values belong to the molecule of their own block, whether it stands above or below them.

Assay: Binding of lutein to selected proteins at ng scale (hexane extraction, absorbance at 280 and 446 nm)
Method: The carotenoid used in this Example 3 was lutein in dry cake form (Kemin Foods, L.C., Des Moines, Iowa). The cake was dissolved in THF at a concentration of approximately 5.28 mM (3 mg lutein in 1 ml THF). Four hundred nanograms of a selected protein (bovine and chicken albumin, gamma-globulins, Kunitz inhibitor, Bowman-Birk inhibitor, whey, and soy protein isolates 873 and 891 from Archer Daniels Midland, DeKalb, Ill.) were added to 200 μl Tris buffer (1.74 g Trizma crystals and 0.42 g calcium chloride added to 250 ml de-ionized H2O, pH 8.74) together with 2 μl of the lutein/THF solution. These reaction solutions were prepared in microcentrifuge tubes (1.5 ml), mixed, and allowed to react at 4° C., overnight, and in the dark. In addition, all reactions were performed in the presence of an alternative metal ion selected from the group Mg^++, Mn^++, Fe^+++, K^+, and Ca^++(MgCl2 6H2O, MnCl24H2O, FeCl3 6H2O, KCl, and CaCl2) at 60 μM concentration.
The hexane wash, vortex and centrifuge procedure was repeated six times. The supernatant was extracted and combined from all six washes and used later to compare absorbance vs. aqueous phase.
Protein and lutein content in the protein solutions and solvents used for extraction were determined by measuring the absorbance at 280 and 446 nm using a spectrophotometer.
The results are compiled and are reported in weight:weight or mol:mol (when available) ratios.

Lutein/Protein Ratio mol/mol (Ca^2+ 60 μM): 506 mol/mol
Lutein/Protein Ratio w/w (Ca^2+ 60 μM): 4.29 w/w
Lutein/Protein Ratio mol/mol (Fe^3+ 60 μM): 365 mol/mol
Lutein/Protein Ratio w/w (Fe^3+ 60 μM): 3.1 w/w
Lutein/Protein Ratio mol/mol (K^+ 60 μM): 383 mol/mol
Lutein/Protein Ratio w/w (K^+ 60 μM): 3.24 w/w
Lutein/Protein Ratio mol/mol (Mg^+ 60 μM): 294 mol/mol
Lutein/Protein Ratio w/w (Mg^+ 60 μM): 2.49 w/w
Lutein/Protein Ratio mol/mol (w/o metal ions): 306 mol/mol
Lutein/Protein Ratio w/w (w/o metal ions): 2.59 w/w
Molecule: Bovine Serum Albumin: bovine albumin

Lutein/Protein Ratio mol/mol (Ca^2+ 60 μM): 67 mol/mol
Lutein/Protein Ratio w/w (Ca^2+ 60 μM): 0.84 w/w
Lutein/Protein Ratio mol/mol (Fe^3+ 60 μM): 71 mol/mol
Lutein/Protein Ratio w/w (Fe^3+ 60 μM): 0.9 w/w
Lutein/Protein Ratio mol/mol (K^+ 60 μM): 95 mol/mol
Lutein/Protein Ratio w/w (K^+ 60 μM): 1.2 w/w
Lutein/Protein Ratio mol/mol (Mg^+ 60 μM): 116? mol/mol
Lutein/Protein Ratio w/w (Mg^+ 60 μM): 1.16 w/w
Lutein/Protein Ratio mol/mol (w/o metal ions): 105 mol/mol
Lutein/Protein Ratio w/w (w/o metal ions): 1.33 w/w
B1: Chicken Serum Albumin: chicken albumin (protein, UniProt P19121 24-615, looked up)
Albumin: FARDAEHKSEIAHRYNDLKEETFKAVAMITFAQYLQRCSYEGLSKLVKDVVDLAQKCVANEDAPECSKPLPSIILDEICQVEKLRDSYGAMADCCSKADPERNECFLSFKVSQPDFVQPYQRPASDVICQEYQDNRVSFLGHFIYSVARRHPFLYAPAILSFAVDFEHALQSCCKESDVGACLDTKEIVMREKAKGVSVKQQYFCGILKQFGDRVFQARQLIYLSQKYPKAPFSEVSKFVHDSIGVHKECCEGDMVECMDDMARMMSNLCSQQDVFSGKIKDCCEKPIVERSQCIMEAEFDEKPADLPSLVEKYIEDKEVCKSFEAGHDAFMAEFVYEYSRRHPEFSIQLIMRIAKGYESLLEKCCKTDNPAECYANAQEQLNQHIKETQDVVKTNCDLLHDHGEADFLKSILIRYTKKMPQVPTDLLLETGKKMTTIGTKCCQLGEDRRMACSEGYLSIVIHDTCRKQETTPINDNVSQCCSQLYANRRPCFTAMGVDTKYVPPPFNPDMFSFDEKLCSAPAEEREVGQMKLLINLIKRKPQMTEEQIKTIADGFTAMVDKCCKQSDINTCFGEEGANLIVQSRATLGIGA

Lutein/Protein Ratio mol/mol (Ca^2+ 60 μM): 31 mol/mol
Lutein/Protein Ratio w/w (Ca^2+ 60 μM): 0.78 w/w
Lutein/Protein Ratio mol/mol (Fe^3+ 60 μM): 29 mol/mol
Lutein/Protein Ratio w/w (Fe^3+ 60 μM): 0.74 w/w
Lutein/Protein Ratio mol/mol (K^+ 60 μM): 24 mol/mol
Lutein/Protein Ratio w/w (K^+ 60 μM): 0.6 w/w
Lutein/Protein Ratio mol/mol (Mg^+ 60 μM): 29 mol/mol
Lutein/Protein Ratio w/w (Mg^+ 60 μM): 0.74 w/w
Lutein/Protein Ratio mol/mol (w/o metal ions): 46 mol/mol
Lutein/Protein Ratio w/w (w/o metal ions): 1.17 w/w
B2: Kunitz: soybean Kunitz proteinase inhibitor (protein, UniProt P01070 25-205, looked up)
Trypsin inhibitor A: DFVLDNEGNPLENGGTYYILSDITAFGGIRAAPTGNERCPLTVVQSRNELDKGIGTIISSPYRIRFIAEGHPLSLKFDSFAVIMLCVGIPTEWSVVEDLPEGPAVKIGENKDAMDGWFRLERVSDDEFNNYKLVFCPQQAEDDKCGDIGISIDHDDGTRRLVVSKNKPLVVQFQKLDKESL
